Results reported in the supplement of paper PMC10567573.
± gives the standard deviation.

Assay: protein stability index of a GFP-peptide fusion (GPS, HEK-293T) (PSI 1-6); higher = more stable
[1] = treatment: DMSO, c terminus: a fixed tail appended
[2] = treatment: MLN4924 1 uM, 8 h, c terminus: a fixed tail appended
[3] = treatment: DMSO, c terminus: native
[4] = treatment: MLN4924 1 uM, 8 h, c terminus: native
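Also: 24-mer peptide tiles fused after GFP, lentivirally expressed, FACS-sorted into six equal bins by GFP/DsRed ratio, decoded by Illumina sequencing, PSI is the read-weighted mean bin number.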

Sequence | protein stability index [1] | protein stability index [2] | protein stability index [3] | protein stability index [4]
YAILDEKKSELLQRITQEQEKKLS [TRIM63] | 4.35 ± 0.17 | 4.52 ± 0.13 | – | –
DLRHLRAVPTDEARAFAEKNNLSF [RAB11B] | 3.63 ± 0.15 | 3.54 ± 0.23 | – | –
QEWSFLPSITRKRRYVASVSLHDR [KLHL12] | 2.41 ± 0.11 | 2.51 ± 0.33 | – | –
LKSDLEKASALNTKIRALQGSLEN [CD207] | 3.91 ± 0.26 | 3.73 ± 0.66 | – | –
SSSCAVHDLIFWRDVKKTGFVFGT [RTN3] | 2.71 ± 0.52 | 2.58 ± 0.52 | – | –
INDNAPTFQSSVLRVGIPENAPIG [PCDHGC5] | 3.99 ± 0.066 | 4.18 ± 0.19 | – | –
DQTKSIVEKIQAKLPGIAKKKAE [RTN3] | – | – | 5.46 ± 0.17 | 5.56 ± 0.22
IESLNEELAYMKKNHEEEMKEFSN [KRT13] | 4.88 ± 0.38 | 5.06 ± 0.3 | – | –
AVLGFPGFSSGRHRWQVDLQLGDG [TRIM15] | 2.18 ± 0.069 | 2.22 ± 0.17 | – | –
VRLDRVRGGRQKYKRRIDAENSPY [ESRRG] | 3.81 ± 0.25 | 3.75 ± 0.052 | – | –
SPPPAPTSSTFGLQDGNLRAPHKE [CHCHD6] | 5.11 ± 0.5 | 5.32 ± 0.14 | – | –
GIAILVGSNDRVQGVISQLEDTCK [TRIM55] | 2.3 ± 0.15 | 2.43 ± 0.37 | – | –
GLVPSEKPPMMPQAQPAIPRPNRL [C2CD2L] | 4.65 ± 0.21 | 4.47 ± 0.068 | – | –
AGTAGVGETGSGDQAGGEGKHITV [MYOZ1] | 5.51 ± 0.14 | 5.05 ± 0.71 | – | –
RMLTDKEREMAEIRDQMQQQLNDY [LMNB1] | 4.93 ± 0.3 | 5.08 ± 0.19 | – | –
KKLHEEELRDLQVSVESQQVQQVE [PRPH] | 4.13 ± 0.62 | 4.2 ± 0.13 | – | –
VEKETQEKMTILQTYFRQNRDEVL [ATP6V1G1] | 3.61 ± 0.34 | 3.78 ± 0.26 | – | –
QKILCSKSENARLVVQIDNAKLAA [KRT33B] | 3.21 ± 0.27 | 3.33 ± 0.26 | – | –
SSSSSSSSCYPLIPSTPEEVSADD [MAGEA10] | 5.46 ± 0.33 | 5.5 ± 0.14 | – | –
IPYWVAYYLALLLSLLVMVISPVI [NSDHL] | 2.23 ± 0.31 | 2.28 ± 0.38 | – | –
VWNMTATRPKKMGSQLPKPRMLRE [FATE1] | 2.94 ± 0.24 | 3 ± 0.12 | – | –
AVGVLLLGLVGYYIFRVANHQKDL [DHCR7] | 2.84 ± 0.29 | 2.79 ± 0.53 | – | –

Sequence | protein stability index [1] | protein stability index [2] | protein stability index [3] | protein stability index [4]
QTDHIKGIRQITSDDFCTFQMVLE [GFOD1] | 2.69 ± 0.28 | 2.8 ± 0.25 | – | –
EGAQLGENKPSTCSFSIERILGLD [HESX1] | 2.92 ± 0.18 | 3.11 ± 0.1 | – | –
PEEFSLLKLQTKDGHRPEWTFYPR [SPATS1] | 2.76 ± 0.32 | 2.87 ± 0.49 | – | –
ASSVESTLPVLEASSWKKQVSHDF [FBXO34] | 3.56 ± 0.49 | 3.67 ± 0.62 | – | –
NLAGFILGCQGAQFVSSVPRCDLV [FAM189A2] | 2.66 ± 0.59 | 2.58 ± 0.57 | – | –
EANSSNSQKNEKALTNIQNCMAEK [C8orf76] | 4.96 ± 0.38 | 4.58 ± 0.37 | – | –
YVTTNVSLIPPRSEQLVNFTGKAE [TMEM106C] | 2.49 ± 0.57 | 2.8 ± 0.68 | – | –
VCVGSDVTSIHKYMVRRYFNKPSR [MYORG] | 2.37 ± 0.2 | 2.34 ± 0.18 | – | –
RLQQLRRLRGLLRVLRGRPGAGSR [FBXO33] | 2.36 ± 0.21 | 2.66 ± 0.62 | – | –
DESLCPQHHEALSLFCYEDQEAVC [TRIM39] | 4.7 ± 0.057 | 4.69 ± 0.16 | – | –
VVKQFVTGIIDSLTISPKAARVGL [MATN2] | 2.15 ± 0.34 | 3.15 ± 1.4 | – | –
LTPTYLNQEDAIHFHRTLKEACDQ [CPOX] | 4.11 ± 0.25 | 4.35 ± 0.29 | – | –
VPDGLGLDEAREEEGDREVVLYG [TRIB3] | – | – | 4.96 ± 0.33 | 5.26 ± 0.28
IMTQLRQEGWIHHLARHAVACFLT [CRY1] | 3.02 ± 0.38 | 2.84 ± 0.61 | – | –
VILSEIKEAVAALPPDVTTQSVMG [TCF25] | 2.77 ± 0.43 | 2.65 ± 0.2 | – | –
SPDKDSIMNIEPAILVMHHSMKPH [INTS3] | 3.32 ± 0.3 | 3.5 ± 0.2 | – | –
HKESKMTIFEKENFIGRQWEISDD [CRYBA1] | 4.13 ± 0.4 | 4.07 ± 0.3 | – | –
KKAPQPAKPRLAERMTTREKKVLE [HDAC6] | 4.58 ± 0.18 | 4.81 ± 0.39 | – | –
PRTNQWSPVVAMTSRRSGVGLAVV [KLHL20] | 2.47 ± 0.51 | 2.47 ± 0.33 | – | –
AYPFYWAWLPQAKVPFSQEIKDLI [PI4K2A] | 2.23 ± 0.32 | 2.13 ± 0.14 | – | –
LTDDKQVLNTQGQKTSGQHMIQGA [DLC1] | 5.06 ± 0.2 | 5.04 ± 0.14 | – | –
ATPRQVPSLQHLCRMSIRRVMPTQ [WSB1] | 3.83 ± 0.23 | 3.77 ± 0.15 | – | –
